Results taken from patent publication EP2747783B1 (Ablynx N.V., dated 2017).
Positions count from the first letter of the chain named. Numbers in names are those of the source.

Key:
[1] = biological target: T1, human c-Met, cell membrane expressed (A549, BxPC-3, myeloma cells) (human, UniProt P08581 25-1390); test: cell-based or functional assay
[2] = biological target: T1, human c-Met, cell membrane expressed …; test: cell-based or functional assay; remark: listed apart in the source
[3] = biological target: T1, human c-Met, cell membrane expressed …; test: cell-based or functional assay; remark: listed apart in the source
[4] = biological target: T2, recombinant human c-Met/Fc chimera (R&D systems) (human); test: Alphascreen; competition with 100 pM biotinylated hHGF for c-MET/Fc
T2 construct: Bought protein; also called hc-Met/Fc; hu c-Met/Fc

[5] = biological target: T2, recombinant human c-Met/Fc chimera (R&D …); test: SPR (ProteOn); c-Met/Fc captured by anti-human IgG(Fc)

T1 sequence (P08581 25-1390 limits assumed, form in doubt): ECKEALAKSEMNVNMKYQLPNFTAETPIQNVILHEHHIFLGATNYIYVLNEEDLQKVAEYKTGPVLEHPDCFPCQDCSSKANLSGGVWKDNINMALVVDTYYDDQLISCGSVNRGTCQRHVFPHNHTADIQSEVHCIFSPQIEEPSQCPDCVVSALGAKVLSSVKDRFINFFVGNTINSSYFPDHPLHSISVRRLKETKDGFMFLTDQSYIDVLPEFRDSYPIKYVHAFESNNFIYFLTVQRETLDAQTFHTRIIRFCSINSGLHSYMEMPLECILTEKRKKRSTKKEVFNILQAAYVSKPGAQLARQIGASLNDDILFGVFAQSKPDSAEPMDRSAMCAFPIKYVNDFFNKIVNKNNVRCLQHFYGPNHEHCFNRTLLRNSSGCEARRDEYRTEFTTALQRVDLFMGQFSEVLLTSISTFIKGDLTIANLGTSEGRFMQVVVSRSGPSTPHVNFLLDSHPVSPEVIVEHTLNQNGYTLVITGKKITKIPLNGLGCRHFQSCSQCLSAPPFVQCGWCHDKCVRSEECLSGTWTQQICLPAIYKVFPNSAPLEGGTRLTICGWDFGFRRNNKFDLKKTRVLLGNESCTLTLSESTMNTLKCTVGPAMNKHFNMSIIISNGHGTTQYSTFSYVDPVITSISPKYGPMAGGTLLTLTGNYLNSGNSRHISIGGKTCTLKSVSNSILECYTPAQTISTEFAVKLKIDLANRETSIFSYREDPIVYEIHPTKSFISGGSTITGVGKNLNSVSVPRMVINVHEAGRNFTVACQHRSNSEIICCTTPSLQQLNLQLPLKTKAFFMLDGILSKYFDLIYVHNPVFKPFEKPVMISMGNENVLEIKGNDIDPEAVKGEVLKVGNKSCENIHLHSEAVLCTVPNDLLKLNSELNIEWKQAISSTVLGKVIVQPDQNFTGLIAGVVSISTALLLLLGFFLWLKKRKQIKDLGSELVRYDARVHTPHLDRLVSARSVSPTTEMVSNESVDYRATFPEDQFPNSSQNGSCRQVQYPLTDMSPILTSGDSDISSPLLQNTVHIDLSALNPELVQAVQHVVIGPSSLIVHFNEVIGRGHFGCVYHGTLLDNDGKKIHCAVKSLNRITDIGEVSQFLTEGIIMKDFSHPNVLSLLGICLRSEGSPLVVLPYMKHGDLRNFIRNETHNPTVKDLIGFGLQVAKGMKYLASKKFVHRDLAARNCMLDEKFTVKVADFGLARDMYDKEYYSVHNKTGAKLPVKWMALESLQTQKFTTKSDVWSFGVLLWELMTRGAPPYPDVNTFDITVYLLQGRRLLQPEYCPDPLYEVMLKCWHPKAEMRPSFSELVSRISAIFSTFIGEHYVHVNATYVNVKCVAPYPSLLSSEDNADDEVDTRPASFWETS
T2 sequence (chain, as listed by the source mutant limits assumed): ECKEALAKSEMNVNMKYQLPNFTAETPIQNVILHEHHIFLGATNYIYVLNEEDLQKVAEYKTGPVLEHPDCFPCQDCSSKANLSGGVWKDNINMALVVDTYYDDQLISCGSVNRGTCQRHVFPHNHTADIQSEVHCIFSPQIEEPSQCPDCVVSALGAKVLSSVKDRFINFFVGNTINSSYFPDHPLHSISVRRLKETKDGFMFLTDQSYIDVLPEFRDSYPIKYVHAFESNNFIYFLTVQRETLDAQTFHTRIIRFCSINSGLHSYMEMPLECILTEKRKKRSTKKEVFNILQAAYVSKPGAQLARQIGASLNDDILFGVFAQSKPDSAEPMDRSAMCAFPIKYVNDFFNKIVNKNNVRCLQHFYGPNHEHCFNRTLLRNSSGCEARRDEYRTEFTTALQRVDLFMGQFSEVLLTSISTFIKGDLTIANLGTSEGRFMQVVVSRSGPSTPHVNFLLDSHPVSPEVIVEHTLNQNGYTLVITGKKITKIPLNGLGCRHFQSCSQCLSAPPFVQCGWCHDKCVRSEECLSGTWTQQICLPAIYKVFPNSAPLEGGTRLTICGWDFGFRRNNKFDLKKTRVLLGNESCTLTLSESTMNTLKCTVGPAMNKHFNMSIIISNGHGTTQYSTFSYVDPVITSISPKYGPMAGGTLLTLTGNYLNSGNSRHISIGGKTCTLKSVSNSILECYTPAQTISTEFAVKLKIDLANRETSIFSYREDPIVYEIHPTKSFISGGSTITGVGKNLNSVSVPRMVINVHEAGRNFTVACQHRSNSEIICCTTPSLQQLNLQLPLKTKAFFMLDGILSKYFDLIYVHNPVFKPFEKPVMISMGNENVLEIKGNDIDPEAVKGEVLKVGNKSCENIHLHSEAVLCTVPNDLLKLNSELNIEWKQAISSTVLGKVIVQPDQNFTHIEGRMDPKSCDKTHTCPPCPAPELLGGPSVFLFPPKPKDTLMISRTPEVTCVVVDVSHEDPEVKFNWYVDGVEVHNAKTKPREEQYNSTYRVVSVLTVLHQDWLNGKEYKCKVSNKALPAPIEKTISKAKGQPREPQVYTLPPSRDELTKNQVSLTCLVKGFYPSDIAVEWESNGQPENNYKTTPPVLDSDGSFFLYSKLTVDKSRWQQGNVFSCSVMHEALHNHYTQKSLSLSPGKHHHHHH

B1: A007900184 (33H10-3xFLAG-His6) (VHH)
VHH: EVQLVESGGGLVQAGGSLRLSCAASGFTFDDYAIGWFRQAPGEEREGVSSISSTYGLTYYADSVKGRFTISSSNAKNTVYLQMNNLKPEDTAVYYCAATPIERLGLDAYEYDYWGQGTLVTVSS
For B1, the “IC50, c-Met phosphorylation” value [1] was 79 nM.

B2: A007901249 (VHH)
VHH: B1 VHH with A14P, E46L, S73D, A75S, N85S, K87R, E102G, R103L, L104I
B2 was tested, and the “IC50, Proliferation assay, plate 2” value [1] was 1.93 nM and the “IC50, c-Met phosphorylation” value [1] was 2.81 nM.

B3: A007901245 (VHH)
VHH: B1 VHH with A14P, S73D, A75S, N85S, K87R, E102G, R103L, L104I
For B3, the “IC50, Proliferation assay, plate 1” value [1] was 3.69 nM and the “IC50, c-Met phosphorylation” value [1] was 5.41 nM.

B4: A007901253 (VHH)
VHH: B1 VHH with A14P, S63P, S73D, A75S, N85S, K87R, E102G, R103L, L104I
B4 was tested, and the “IC50, c-Met phosphorylation” value [1] was 4.84 nM.

B5: A007901252 (VHH)
VHH: EVQLVESGGGLVQPGGSLRLSCAASGFAFDDYAIGWFRQAPGKERLGVSSISSTYGLTYYADSVKGRFTISSDNSKNTVYLQMNSLRPEDTAVYYCAATPIGLIGLDAYEYDYWGQGTLVTVSS
For B5, the “IC50, c-Met phosphorylation” value [1] was 4.16 nM.

B6: A007901247 (VHH)
VHH: B5 VHH with A28T, L46E
With B6 the “IC50, c-Met phosphorylation” value [1] was 12.8 nM.

B7: A007901251 (VHH)
VHH: B5 VHH with A28T
With B7 the “IC50, c-Met phosphorylation” value [1] was 4.98 nM.

B8: A007901248 (VHH)
VHH: B5 VHH with L46E
For B8, the “IC50, c-Met phosphorylation” value [1] was 11.5 nM.

B9: A007901246 (VHH)
VHH: B5 VHH with K43E, L46E
For B9, the “IC50, Proliferation assay, plate 1” value [1] was 1.88 nM and the “IC50, c-Met phosphorylation” value [1] was 3.44 nM.

B10: A007901250 (VHH)
VHH: B5 VHH with K43E
For B10, the “IC50, Proliferation assay, plate 1” value [1] was 2.29 nM, the “IC50, Proliferation assay, plate 2” value [1] was 1.32 nM and the “IC50, c-Met phosphorylation” value [1] was 2.34 nM.

B11: 04E09(L49S) (SEQ ID NO: 23) tagged with 3xFlag-His6 (VHH)
VHH: EVQLVESGGGLVQPGGSLRLSCAASGFILDYYAIGWFRQAPGKEREGVSCIDASDDITYYADSVKGRFTISRDNAKNTVYLQMNSLKPEDTGVYYCATPIGLSSSCLLEYDYDYWGQGTLVTVSS
In the case of B11, the “IC50, HGF-dependent c-Met phosphorylation” value [2] is reported as 3.1 nM.

B12: A007901219 (A00790105-9GS-Alb23) (bispecific antibody)
chain: DVQLVESGGGLVQPGGSLRLSCAASGFILDYYAIGWFRQAPGKEREGVLCIDASDDITYYADSVKGRFTISRDNSKNTVYLQMNSLRPEDTAVYYCATPIGLSSSCLLEYDYDYWGQGTLVTVSSGGGGSGGGSEVQLLESGGGLVQPGGSLRLSCAASGFTFRSFGMSWVRQAPGKGPEWVSSISGSGSDTLYADSVKGRFTISRDNSKNTLYLQMNSLRPEDTAVYYCTIGGSLSRSSQGTLVTVSS
notes: also called A007901219 (Alb23)
In the case of B12, the “IC50, cMET phosphorylation assay, + HSA” value [3] is reported as 4.2 nM, the “IC50, cMET phosphorylation assay, - HSA” value [3] is reported as 5.41 nM and the “fold improved potency as compared to 5D5 Fab v2” value [4] is reported as > 5 fold.

B13: 04E09(C22A/C92S) (SEQ ID NO: 25) tagged with 3xFlag-His6 (VHH)
VHH: EVQLVESGGGLVQPGGSLRLSAAASGFILDYYAIGWFRQAPGKEREGVLCIDASDDITYYADSVKGRFTISRDNAKNTVYLQMNSLKPEDTGVYYSATPIGLSSSCLLEYDYDYWGQGTLVTVSSGAADYKDHDGDYKDHDIDYKDDDDKGAAHHHHHH
B13 was tested, and the “IC50, HGF-dependent c-Met phosphorylation” value [2] was 3.8 nM.

B14: 04E09(C50S/C100bG) (SEQ ID NO: 24) tagged with 3xFlag-His6 (VHH)
VHH: B11 VHH with S49L, C50S, C106G
With B14 the “fold lower on-rate and off-rates against 04E09-9GS-Alb11 and 04E09 (C22A/C92S)” value [5] was 10 fold.
